Results from the supplement of paper PMC9876800.

Tested on: peptide library, one residue held at a place counted from the S/T acceptor
Assay: relative phosphorylation of the sub-library (ratio to the mean residue at this position); higher = residue favoured
Conditions: human
Summary of the method: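 Relative sub-library phosphorylation is the ratio of each sub-library's signal to the mean residue at that position. The signal came from phosphorimaging of spots on streptavidin membranes, quantified by densitometry, after purified recombinant kinases reacted with biotinylated degenerate peptide sub-libraries in 384-well plates. Reactions held 50 μM peptide and 50 μM ATP spiked with γ-32P-ATP for 90 min under kinase-specific conditions.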

Chain of MAP3K19, construct: aa941-end (Q56UN5 941-1328, looked up): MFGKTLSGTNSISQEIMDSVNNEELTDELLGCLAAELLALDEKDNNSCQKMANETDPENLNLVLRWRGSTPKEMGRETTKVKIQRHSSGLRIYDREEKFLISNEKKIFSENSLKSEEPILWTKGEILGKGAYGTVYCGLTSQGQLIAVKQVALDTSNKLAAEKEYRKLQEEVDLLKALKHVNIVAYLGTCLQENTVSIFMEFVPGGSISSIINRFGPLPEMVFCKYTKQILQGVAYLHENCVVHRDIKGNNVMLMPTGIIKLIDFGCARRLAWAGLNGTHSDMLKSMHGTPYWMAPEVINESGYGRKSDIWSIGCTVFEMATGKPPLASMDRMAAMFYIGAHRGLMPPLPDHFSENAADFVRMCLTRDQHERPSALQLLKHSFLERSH
Chain of PRKX, construct: Full length (P51817 whole entry, looked up): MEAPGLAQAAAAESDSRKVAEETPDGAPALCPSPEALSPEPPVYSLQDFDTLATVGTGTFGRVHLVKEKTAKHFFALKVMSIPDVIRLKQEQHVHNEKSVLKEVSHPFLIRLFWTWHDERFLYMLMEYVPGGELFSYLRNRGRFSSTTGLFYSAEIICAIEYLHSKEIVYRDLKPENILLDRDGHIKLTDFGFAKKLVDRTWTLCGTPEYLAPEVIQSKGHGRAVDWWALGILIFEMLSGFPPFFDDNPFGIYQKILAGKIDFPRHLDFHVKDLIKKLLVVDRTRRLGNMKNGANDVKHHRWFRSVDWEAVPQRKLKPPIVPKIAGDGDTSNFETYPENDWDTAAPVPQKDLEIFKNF

PRKX, construct: Full length (from UniProt P51817)
relative phosphorylation
Conditions	at +1	at +2	at +3	at +4	at -1	at -2	at -3	at -4	at -5
A fixed	0.71	1.3	0.688	0.785	0.651	0.289	0.299	1.03	1.08
D fixed	0.862	2.53	1.6	2.09	0.698	0.224	0.2	0.876	1.11
E fixed	0.814	1.04	1.32	1.61	0.424	0.2	0.208	0.881	0.985
F fixed	0.849	0.505	0.697	0.599	0.425	0.212	0.128	0.515	0.596
G fixed	1.06	1.27	1.49	1.08	1.29	0.382	0.477	1.1	1.4
H fixed	0.919	1.16	1.31	1.04	1.18	0.662	1.14	1.09	1.26
I fixed	0.872	0.411	0.344	0.522	0.184	0.143	0.111	0.357	0.528
K fixed	1.55	0.713	1.38	1.12	2.79	4.76	3.29	2.53	2.14
L fixed	0.859	0.47	0.627	0.572	0.399	0.185	0.112	0.451	0.507
M fixed	0.884	0.504	0.462	0.643	0.534	0.176	0.134	0.575	0.651
N fixed	1.41	1.47	1.52	1.48	1.7	0.343	0.383	0.914	1.11
P fixed	0.584	1.84	1.24	1.3	1.55	0.395	0.797	1.22	0.811
Q fixed	1.47	1.24	1.36	1.23	1.41	0.483	0.444	1.18	0.807
R fixed	1.57	0.881	1.13	1.06	2.37	7.88	8.71	2.58	2.12
V fixed	0.801	0.498	0.413	0.623	0.217	0.143	0.112	0.412	0.454
W fixed	1.02	0.624	0.752	0.637	0.457	0.295	0.246	0.686	0.731
Y fixed	0.766	0.548	0.669	0.608	0.711	0.234	0.204	0.613	0.71
pThr fixed	1.32	1.05	1.35	2.62	0.462	0.431	0.421	0.921	1.04
pTyr fixed	1.54	1.38	1.3	1.55	0.999	0.374	0.345	0.864	0.882

MAP3K19, construct: aa941-end (from UniProt Q56UN5)
relative phosphorylation
Conditions	at +1	at +2	at +3	at +4	at -1	at -2	at -3	at -4	at -5
A fixed	0.458	0.666	0.903	0.975	0.853	1.02	0.971	1.05	1.27
D fixed	0.354	0.662	0.8	0.995	1.51	1.22	1.46	1.14	1.18
E fixed	0.386	0.508	0.765	0.822	0.913	0.851	1.03	1.1	0.864
F fixed	1.33	0.605	0.974	0.784	0.832	1.67	0.921	1.04	1.08
G fixed	0.531	0.809	1.15	1.23	0.867	0.977	1.16	1.16	1.24
H fixed	0.999	1.35	1.1	1.12	1.25	1.34	1.08	1.06	1.13
I fixed	1.7	0.677	0.741	0.801	0.586	0.558	0.65	0.701	0.679
K fixed	0.396	2.23	1.32	1.38	1	0.363	0.877	0.834	0.892
L fixed	2.2	0.55	0.818	0.817	1.13	0.506	0.725	0.883	0.736
M fixed	1.56	0.625	0.803	0.863	1.03	0.821	0.95	0.969	0.87
N fixed	0.52	1.43	1.22	1.05	1.25	1.08	1.39	1.1	1.05
P fixed	0.202	0.646	1.27	1.34	1.08	0.687	0.953	1.06	1.01
Q fixed	0.485	0.932	0.986	1.26	0.941	0.856	1.04	0.936	0.818
R fixed	0.433	3	1.18	1.05	0.914	0.484	0.923	0.888	1.02
V fixed	1.17	0.883	0.919	0.756	0.615	0.599	0.606	0.81	0.879
W fixed	2.7	0.673	1.06	0.916	0.841	1.79	1.21	1.21	1.28
Y fixed	1.57	0.755	0.982	0.838	1.38	2.18	1.05	1.05	1.02
pThr fixed	0.786	1.14	1.09	1.08	0.755	0.741	1.09	1.13	1.19
pTyr fixed	0.541	0.47	0.675	0.662	1.35	0.832	1.09	0.908	0.807

PKN1, construct: aa460-982 (from UniProt Q16512)
relative phosphorylation
Conditions	at +1	at +2	at +3	at +4	at -1	at -2	at -3	at -4	at -5
A fixed	0.528	0.745	0.906	1	1.03	1.13	0.67	1.01	0.865
D fixed	0.183	0.162	0.281	0.393	0.581	0.2	0.126	0.354	0.262
E fixed	0.171	0.149	0.352	0.372	0.509	0.254	0.14	0.536	0.256
F fixed	4.71	0.739	1.14	0.743	1.03	0.85	0.456	1.06	1.19
G fixed	0.361	0.397	0.783	0.98	1	0.777	0.412	1.14	0.789
H fixed	0.564	1.34	1.02	1.22	1.22	1.16	0.907	1.03	0.761
I fixed	1.26	0.785	1.04	0.753	0.535	0.557	0.407	0.88	1.6
K fixed	0.784	2.16	1.46	2.04	1.53	2	2	1.73	1.2
L fixed	1.13	1.1	1.06	0.794	0.973	0.638	0.455	0.922	1.84
M fixed	2.16	0.896	1.06	0.819	1.05	0.89	0.483	1.07	0.967
N fixed	0.483	0.575	0.629	0.929	1.16	0.926	0.315	0.717	0.49
P fixed	0.266	0.297	0.493	1.4	1.16	0.347	0.328	0.59	0.921
Q fixed	0.62	0.578	0.736	0.996	0.947	1.05	0.585	0.842	0.643
R fixed	0.999	4.44	2	1.86	1.51	3.36	8.17	2.01	1.61
V fixed	0.852	0.749	1.02	0.678	0.622	0.781	0.373	0.991	1.55
W fixed	0.889	0.675	1.5	1.15	0.9	1.1	0.58	0.992	0.926
Y fixed	1.04	1.22	1.53	0.87	1.24	0.978	0.6	1.13	1.14
pThr fixed	0.476	0.43	0.412	0.443	0.302	0.296	0.259	0.551	0.368
pTyr fixed	0.314	0.354	0.567	0.384	0.388	0.266	0.215	0.412	0.514
